The results in this text go back to PMC2673036, “Ancient mtDNA Genetic Variants Modulate mtDNA Transcription and Replication”.

The target of data set [1] is T1, TFAM (mitochondrial transcription factor A) (UniProt Q00059 43-246).
T1 sequence: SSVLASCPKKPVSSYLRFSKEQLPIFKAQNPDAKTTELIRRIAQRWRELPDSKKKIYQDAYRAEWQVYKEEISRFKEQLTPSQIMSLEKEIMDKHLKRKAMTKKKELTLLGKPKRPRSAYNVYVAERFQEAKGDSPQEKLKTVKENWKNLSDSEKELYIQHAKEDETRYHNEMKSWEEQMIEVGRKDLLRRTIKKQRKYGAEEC
The data set can be described thus: EMSA; TFAM:probe 10:1 and 25:1; increased binding vs wt-295, exact value only in figure; 10 mM Tris-HCl pH 7.5, 10 mM KCl, 1 mM DTT, 1 mM EDTA, 6% glycerol; 3 nM probe, 30 or 75 nM TFAM; 30 min, room temperature; 5% native PAGE, 0.5x TBE. The settings on record: protein: recombinant; (PNK end label); blunt. For orientation: In EMSA bound probe runs differently from free probe, usually more slowly.

Data set [2] concerns the target T1, TFAM (mitochondrial transcription …). The data set can be described thus: EMSA; TFAM:probe 10:1 and 25:1; reference for normalization; 10 mM Tris-HCl pH 7.5, 10 mM KCl, 1 mM DTT, 1 mM EDTA, 6% glycerol; 3 nM probe, 30 or 75 nM TFAM; 30 min, room temperature; 5% native PAGE, 0.5x TBE. To be noted: protein: recombinant; (PNK end label); blunt.

B1: C295T-VAR (haplogroup J, 276-303) (dsDNA)
DNA 1: ACATCATAACAAAAAATTTTCACCAAAC
DNA 2: GTTTGGTGAAAATTTTTTGTTATGATGT
Consider B1, for which the binding signal in data set [1] was > 1 relative to wt-295.

B2: wt-295 (CRS 276-303) (dsDNA)
DNA 1: ACATCATAACAAAAAATTTCCACCAAAC
DNA 2: GTTTGGTGGAAATTTTTTGTTATGATGT
For B2, in data set [2], the binding signal is 1 relative to wt-295.
